Measured values: patent publication US20240010747A1, “ANTI-MRP4 (ENCODED BY ABCC4 GENE) ANTIBODIES AND USES THEREOF” (Kenjockety Biotechnology, Inc., priority 2020, published 2024)

T1: human ABCC4 (Homo sapiens, UniProt O15439)
T1 construct: expressed in transfected cells
T1 sequence (O15439 1-1325): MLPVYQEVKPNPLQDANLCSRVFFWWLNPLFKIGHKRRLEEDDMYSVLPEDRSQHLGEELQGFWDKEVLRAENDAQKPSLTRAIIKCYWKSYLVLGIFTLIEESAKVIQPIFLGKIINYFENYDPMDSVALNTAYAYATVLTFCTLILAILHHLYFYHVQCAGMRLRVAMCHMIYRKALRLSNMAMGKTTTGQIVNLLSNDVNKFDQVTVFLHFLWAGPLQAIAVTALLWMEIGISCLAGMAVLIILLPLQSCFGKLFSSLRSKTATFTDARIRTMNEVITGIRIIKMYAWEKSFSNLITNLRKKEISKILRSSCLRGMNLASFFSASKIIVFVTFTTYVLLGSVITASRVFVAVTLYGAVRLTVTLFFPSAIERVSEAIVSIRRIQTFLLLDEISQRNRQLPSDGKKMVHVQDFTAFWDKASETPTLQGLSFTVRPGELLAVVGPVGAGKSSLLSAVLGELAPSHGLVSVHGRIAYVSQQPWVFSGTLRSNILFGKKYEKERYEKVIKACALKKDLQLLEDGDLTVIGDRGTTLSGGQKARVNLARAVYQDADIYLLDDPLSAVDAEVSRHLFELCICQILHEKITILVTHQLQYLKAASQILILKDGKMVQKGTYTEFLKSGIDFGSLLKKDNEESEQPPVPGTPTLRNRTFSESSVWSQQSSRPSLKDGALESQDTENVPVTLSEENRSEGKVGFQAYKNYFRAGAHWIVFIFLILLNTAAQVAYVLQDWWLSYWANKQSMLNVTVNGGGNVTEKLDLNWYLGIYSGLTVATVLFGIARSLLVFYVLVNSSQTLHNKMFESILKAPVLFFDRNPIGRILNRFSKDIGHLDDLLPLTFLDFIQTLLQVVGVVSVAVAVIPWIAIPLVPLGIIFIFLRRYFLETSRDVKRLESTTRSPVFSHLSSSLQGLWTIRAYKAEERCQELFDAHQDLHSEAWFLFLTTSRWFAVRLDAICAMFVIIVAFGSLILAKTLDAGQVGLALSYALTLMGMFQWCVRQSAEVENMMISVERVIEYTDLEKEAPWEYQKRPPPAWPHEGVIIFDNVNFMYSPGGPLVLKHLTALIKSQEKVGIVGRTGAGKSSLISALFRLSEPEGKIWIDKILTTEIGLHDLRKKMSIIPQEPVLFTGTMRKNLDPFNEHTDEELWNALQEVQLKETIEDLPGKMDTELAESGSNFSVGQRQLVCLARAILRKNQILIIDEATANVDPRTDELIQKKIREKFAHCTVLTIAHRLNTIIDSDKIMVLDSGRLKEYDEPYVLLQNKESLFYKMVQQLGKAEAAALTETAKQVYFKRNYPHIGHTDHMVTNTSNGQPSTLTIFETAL

T2: human ABCC4 (human, UniProt O15439 1-1325)
T2 construct: Expressed on murine C6 cells stably transfected with human ABCC4 cDNA with C-terminal FLAG tag; also called MRP4; Multidrug resistance protein 4; not shown: C-terminal fused FLAG tag
T2 sequence: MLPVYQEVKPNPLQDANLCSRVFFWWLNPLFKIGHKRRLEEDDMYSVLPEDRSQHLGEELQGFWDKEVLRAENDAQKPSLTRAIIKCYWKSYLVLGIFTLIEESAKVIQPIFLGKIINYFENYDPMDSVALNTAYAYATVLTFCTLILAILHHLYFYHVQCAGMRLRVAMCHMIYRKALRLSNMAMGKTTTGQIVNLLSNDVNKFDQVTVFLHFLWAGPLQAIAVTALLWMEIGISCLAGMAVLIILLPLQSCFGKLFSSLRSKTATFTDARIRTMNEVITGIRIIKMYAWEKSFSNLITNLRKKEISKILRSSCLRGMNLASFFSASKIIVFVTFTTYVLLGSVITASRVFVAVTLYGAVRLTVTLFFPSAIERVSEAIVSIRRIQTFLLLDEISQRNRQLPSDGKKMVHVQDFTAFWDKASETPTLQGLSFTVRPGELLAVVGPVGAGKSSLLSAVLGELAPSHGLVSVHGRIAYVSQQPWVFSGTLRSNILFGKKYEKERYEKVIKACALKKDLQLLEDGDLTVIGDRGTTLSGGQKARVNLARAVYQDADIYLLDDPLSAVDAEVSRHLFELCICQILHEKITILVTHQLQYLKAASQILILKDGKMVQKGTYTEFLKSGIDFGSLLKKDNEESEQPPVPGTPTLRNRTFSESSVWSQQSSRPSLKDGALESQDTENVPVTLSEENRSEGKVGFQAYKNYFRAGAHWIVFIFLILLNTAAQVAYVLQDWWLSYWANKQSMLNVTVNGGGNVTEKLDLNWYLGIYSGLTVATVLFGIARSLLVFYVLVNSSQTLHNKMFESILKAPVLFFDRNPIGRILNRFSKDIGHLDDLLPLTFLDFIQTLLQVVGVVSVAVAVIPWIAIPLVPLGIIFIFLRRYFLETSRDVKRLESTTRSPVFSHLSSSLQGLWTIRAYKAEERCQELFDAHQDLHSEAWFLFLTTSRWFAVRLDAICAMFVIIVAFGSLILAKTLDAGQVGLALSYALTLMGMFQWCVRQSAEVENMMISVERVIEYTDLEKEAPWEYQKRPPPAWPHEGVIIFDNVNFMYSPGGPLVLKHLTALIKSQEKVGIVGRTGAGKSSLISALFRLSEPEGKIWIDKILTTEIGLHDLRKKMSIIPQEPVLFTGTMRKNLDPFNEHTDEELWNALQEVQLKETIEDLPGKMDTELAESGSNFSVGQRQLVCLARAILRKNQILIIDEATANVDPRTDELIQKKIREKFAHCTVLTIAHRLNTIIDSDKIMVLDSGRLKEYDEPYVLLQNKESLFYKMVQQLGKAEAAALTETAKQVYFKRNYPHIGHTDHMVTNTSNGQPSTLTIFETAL


How the values were obtained:
human ABCC4 [1] = molecular target: T1, human ABCC4; assay: Flow cytometry (FACS) binding to C6 cells stably transfected to express human ABCC4 (Table 3 study); conditions: C6 cells stably transfected to express human ABCC4, FACS; Table 3
Method: (§1) Binding titration of recombinant antibodies to ABCC4 transfectants was performed by serial dilution of antibodies from about 666 nM. Diluted antibody in flow cytometry buffer was incubated with cells on ice for 30 min. After 2 washes with flow cytometry buffer, bound antibody was detected with PE-labeled F(ab′)2 fragment goat anti-human IgG (Jackson ImmunoResearch) diluted 1:200 in flow cytometry buffer and incubated with cells for 20 min on ice. After 2 washes with flow cytometry buffer fluorescence was measured on an Attune N×T flow cytometer. Data were analyzed with GraphPad Prism 8.0 software to determine EC50's.
(§2) Human embryonic kidney HEK 293T cells and murine C6 (ATCC CCL-107) were transfected with human or cynomolgus ABCC4 cDNA with C-terminal fused FLAG tag in a pMONO-hygro vector with Lipofectamine 3000 (Invitrogen #L3000001). The cells were treated with 0.2 mg/ml and 0.5 mg/ml hygromycin respectively for about 2 weeks while cultivated in DMEM and 10% FBS with 0.2 mg/ml hygromycin and 0.5 mg/ml hygromycin, respectively. The cells were washed with PBS, and stained with […] of anti-FLAG-PE after fixing and permeablization. Clones expressing ABCC4 were single-cell sorted into 200 μl DMEM with 10% FBS using a BD Aria FACS machine and cultivated in 96 well plates using standard techniques in an incubator at 37° C. and 5% CO 2. Two weeks later clones expressing high levels of ABCC4 were screened and amplified.
(§3) Antibody binding to cells was evaluated by flow cytometry. Murine C6 cells stably transfected to express human or cynomolgus ABCC4 were washed once in flow cytometry buffer (PBS+2% FBS+0.02% sodium azide), resuspended at 2×10^6 cells/mL in flow cytometry buffer, and dispensed into 96-well microtiter plates at 0.1 mL/well. Recombinant antibodies were added to cells at 5 ug/mL for initial binding confirmation, or serially diluted from 100 ug/mL in flow cytometry buffer. After incubating cells on ice for 30 min, cells were washed twice with flow cytometry buffer. Bound antibody was detected with PE-labeled F(ab′)2 fragment goat anti-human IgG (Jackson ImmunoResearch) and evaluated on an Attune N×T flow cytometer. EC50 is calculated to be the concentration of antibody that gives half maximal response.
(§4) Table 3 lists the following characteristics of the rat anti-ABCC4 antibodies tested: binding to C6 cells stably transfected to express human ABCC4 measured by FACS and binding to C6 cells stably transfected to express cynomolgus ABCC4 measured by FACS. Negative (−) is defined as maximum response (Rmax(MFI)) below background level. Positive (+) is defined as MFI>1000.

cynomolgus ABCC4 [2] = assay: Flow cytometry (FACS) binding to C6 cells stably transfected to express cynomolgus ABCC4 (Table 3 study); parameters: key to Cynomolgus ABCC4 binding: Negative (−) is defined as maximum response (Rmax(MFI)) below background level; Positive (+) is defined as MFI>1000; conditions: C6 cells stably transfected to express cynomolgus ABCC4, FACS; Table 3
Method: as §1, §2, §3, §4

human ABCC4 [3] = molecular target: T1, human ABCC4; assay: Flow cytometry (FACS) binding to C6 cells stably transfected to express human ABCC4 (different experiment, Table 4); conditions: for Human ABCC4 binding: C6 cells stably transfected to express human ABCC4, FACS, different experiment, Table 4
Method in brief: (§5)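 Murine C6 cells stably expressing FLAG-tagged human or cynomolgus ABCC4 incubated 30 min on ice with antibodies, either 5 ug/mL or serially diluted from 100 ug/mL, in PBS+2% FBS+0.02% azide. Detection with PE anti-human IgG F(ab′)2 by flow cytometry; EC50 at half-maximal MFI; negative below background, positive >3× background.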

cynomolgus ABCC4 [4] = assay: Flow cytometry (FACS) binding to C6 cells stably transfected to express cynomolgus ABCC4 (different experiment, different C6.cC4 cell line, Table 4); parameters: key to Cynomolgus ABCC4 binding: Negative (−)=Rmax (MFI) below background level; Positive (+)=MFI>3× background level; conditions: for Cynomolgus ABCC4 binding: different C6.cC4 cell line, C6 cells stably transfected to express cynomolgus ABCC4, FACS, Table 4
Method in brief: as §5

human ABCC4 [5] = molecular target: T2, human ABCC4; assay: FACS, C6 cells stably expressing human ABCC4; + = MFI>3x background
Method: as §3, with “2×10\hat{ }6” for “2×10^6”, “F(ab′)₂” for “F(ab′)2”

| Human ABCC4 binding (human ABCC4 [1]) | Human ABCC4 binding (human ABCC4 [3]) | binding to human ABCC4 expressed on cell surface (human ABCC4 [3]; Table 4 study, stated in words) | binding result (human ABCC4 [5]) | Molecule | Cynomolgus ABCC4 binding (cynomolgus ABCC4 [2]) | Cynomolgus ABCC4 binding (cynomolgus ABCC4 [4]) | binding to cynomolgus ABCC4 expressed on cell surface (cynomolgus ABCC4 [4]; Table 4 study, stated in words) |
| --- | --- | --- | --- | --- | --- | --- | --- |
| + (Positive (+) is defined as MFI>1000) | + (Positive (+)=MFI>3× background level) |  |  | C4.947: anti-ABCC4 antibody raised in rats; VH SEQ ID NO: 5, VL SEQ ID NO: 128 (antibody, V domains shown) VH: EVKLVESGGGLVQPGGSMRLSCAASGFTFTDFYMNWIRQPAGKAPEWLGFIRNKANAYTTAYNPSVKGRFTISRDNAQNMLYLQMNTLRAEDTATYYCARSNYGFDYWGQGVMVTVSS VL: DVAMTQTPPSLSVAIGQSVSISCKSSQSLVYSDGKTYLHWLLQSSGRSPKRLIYQVSNLDSGVPDRFSGTGSQKDFTLKISRVEAKDLGVYYCAQTTHFPFTFGSGTKLEIK | − | − |  |
| + (Positive (+) is defined as MFI>1000) | + (Positive (+)=MFI>3× background level) |  |  | C4.925: anti-ABCC4 antibody raised in rats; VH SEQ ID NO: 3, VL SEQ ID NO: 126 (antibody, V domains shown) VH: EVQLVESGGGLVQPGRSLKLSCAASGFTFSDYYMAWVRQAPTKGLEWVAYINYDGGSTHYGDSVKGRFTISRDNEKSTLYLQMNSLRSEDMATYYCARENYGYNSFDYWGQGASVTVSS VL: DIQVTQSPASLSASLGETISIECLTSEDISSYLTWYQQKPGKSPHLLIYGANSLQAGVPSRFSGSGSGTQYSLKISSMQPEDEGDYFCQQSYKFPLTFGSGTKLELK | − | − |  |
|  | + (Positive (+)=MFI>3× background level) | bind to both human and cynomolgus ABCC4 | binds | C4.1131 (antibody, V domains shown) VH: EVKLVESDGGLVQPRKSLKLSCAASGFTFTDYYMAWVRQGPTMGLEWVATISNDGSTKYYRDSVKGRFTLSRDNAKTTLHLQMDSLRSEDTATYYCARLTIRYKGVMDAWGQGASVTVSS VL: DVVMTQSPSHLAASPGESVSINCKASKNIYKYLAWYQQKPGKTNKLLIYSGSTLQSGTPSRFSGSGSGSDFTLTIRNLEPEDFGLYYCQHHNEYPPTFGGGTKLEIK |  | + (Positive (+)=MFI>3× background level) | bind to both human and cynomolgus ABCC4 |
